Test results: the domain aggregation screens of Martell et al. (2025)

Assay: soluble fraction after stress (log2 fold change); higher = more stays soluble; pooled small domains, quantitative proteomics
Settings: stress: 50 degC
Outline: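 Pooled custom libraries of small protein domains were measured in a high-throughput format, with quantitative proteomics as the read-out. Each library was stressed at 50°C. Aggregation propensity is given as the base-two logarithm of the fold change in how much of each protein stays soluble after the stress. Higher values mean a larger share of the protein remains in solution.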

Sequence | soluble fraction (log2)
HMLAEEDRRRAERPGLDGNAVMVHLGIGPGRHVGEALAFLLEVRRSEGDLAVAELKSRIDAWWADR | -2.59
HMLAERKERDKAELKELILDAAKKILLKNGQEGLSIRKIATTVEYSPATIYLYFKDKDEILHELMEMG | 0.317
HMLAHSEFGARLRETRKRLGLSQSELGGDRYSGSYISHLESGRRAASAEVIEFLAGRLGVEVEELGM | -0.171
HMLAIELDDKPGSLLRALEIFAKRNLNIEYMYAFTEKRGDKAVMIFKFSDIETAKKSLLEEGFN | -1.64
HMLAKNDSGLNNHTFNAIRDALLEALADGPAEAKKLTENISFPSDKIITVIRFLADHDDRFSLEDGILSLT | -0.515
HMLAKYEIIKQDIIQMIEEKKFKPGDKIYSEGELKKIYNVSSTTVVRALQDLVLSGYLIRKQGEGTYVRK | -1.23
HMLASDYEEELSVLIKMSHKIAAGDDSLMDDFNDRVTMFESSYPINKATKDLTPVLERVNKFQT | -0.346
HMLDDDAGMIQAILRKAPGHYLPLHDKSDPASIQAQLGISKAQFKRAVGTLMKQGLIRQVKGDGLYLTQ | 0.0324
HMLDDESLHFFYKKDGWEYWMKTTTENNYPIQLRKKIGDEKVQEYWNGDKEKKKIGASYFGV | -0.391
HMLDFLVSKYESELLADLLWSLGVVAVEEREATGDLVTLRTSLGDDHSFTRELVQEKFPDVIVSTAL | -1.47
HMLDIVVGSTGYALGEITDHSGTVRVNGDTWTARLVDAAGPVEDGDRVEVYAVEGTTLLVYPS | -0.396
HMLDKEDNANAGKTLLERELSRAHLSDVEHRELAQRLHLASEQELYIKIGSGDLSIIQALNRAKEFKDT | -0.0156
HMLDKRSHAKKVLDAIEAVILGRATNDQLAYTINGRSLQKTPLPDLLRLRSQYQAEYQRELRAERIRKG | -0.131
HMLDLPVKTINGKQYYYYTVKKGDTVYSLITRFGITRSDLVESNPAAADVLKTGDTLYFAVDKFG | -0.0825
HMLDLYYDSEDKLLIDMGTGEVIRSFADDKRSLVFDAQAKILFDEDSGDIVYSSYFDKLITDKLASKS | -0.0393
HMLDPIQEGKKMLNSRLSGFGITPNTRLMNKLLAAYNISSREEFYGRIGAGIEDLSTLREVLLKGT | -0.284
HMLDQSYYETANEIISRYPLEEKSLIPIIQDIQATYRYLPPDLLDYVAKKIGITETKAYSVASFYENFSF | -0.327
HMLDRNKLNELDAYIESFEDKPSHLIMILHRAQGLFGYLPKELQIYVAEKTGVPAAKVYGVVTFYSFFTMK | -1.4
HMLEDDTVNTAEGIKIGDSFAAVTKAYGTDYVAAGNTYAYSKDKMTLTFVMNNDKVSTISYSLLTS | -0.129

Sequence | soluble fraction (log2)
HMLEDYFKEEEYTEVLKIPKEYIKGFQYYLIEDAEFVNALRAKNKTMTLFLAKKLASDYIEIIRREQ | -0.208
HMLEIGRYNTLTVLRKVDFGYYLDGLDYGDILMPAKYAATELEAGDEVDVFIYLDSSEKLIATTETPIAQ | -3.38
HMLEIQENFQNILKRMELSLSPLERRVLALYLSGYERSEIPEKTGIPLKTFDNALHRVRNKMK | -1.53
HMLEKDIGKAITILRKSYQLSISAFSMRTGYSRVHISEVESGKRKATDELISVIRNVFHLDSNWPF | -1.47
HMLELDRTNLLGVFGSKSNPYALIMLSNGEMLKLSIGDQFLGWRVYAIDQTTVHVQNGKNQEILRIP | -1.13
HMLELLSMEDIQRTRVGDLIATVRQVDRQHALVLDRDPETGKPAVRGIFSLSQISLRLGLNI | -0.557
HMLEPGIAVLKTLMSQYRLGVADLPELGSKSNVSKLLNAVEGKKLTRQHIEALSKRFAVSPALF | -0.195
HMLEPGQKVKSVVVDISGDLIYIDLGGKTEGVVELKEFYDEAGEYHVKPGDEIEVFFVSVQNGLKRFTT | -0.0167
HMLEQISDPEVLSKLADEVLSQQEKMVMDYRKGKTAAFQGLMGQMMKKTKGKGNPAKIQEILAQKL | 0.193
HMLEQLTPRELKVLQALAQGRQNKEIAAQLVISERTVKFHVSAILSKLNVGNRTEAVTVAAQRGLISL | -1.03
HMLEQSYYEKTDEIIELHGAKASSLIPVMQDVQAEYRYLPGELLSYIADKLGIPLAKAYSVATFYENFS | -0.358
HMLERKFGTSLEIKSLSKFLIENNYKKNAKYLNKLIQVLGTRSENRIIKTFFKQFPEIENIFRNQL | -0.846
HMLETADDAKRFLGAIISEKKAENLLRVYPDIIERIVAGKPVDLSLVKGIKQKTFDKLRQKVISHYSMY | 0.119
HMLETHRRRQIILSLLRESGMLDVDEVAARLVVSPNTIRNDFNALAAEGLLRRIRGGATLAEP | -0.349
HMLFKNASGTVVSRIQSQVDGQINIRTGSGNAPDYAFVAKPDGAVELYHNGTKQFETGSSGVLLP | -0.274
HMLFQQPATMIGKIGVAMSDLRPSGKIKIDDEWYDGQSEGDYILKGQEIIVVQVMNAYLIVRL | 0.126
HMLFRGNGFNTLYDKQLRITQQGEFKDGRLWDGKYYRYSKAGELVRIEIYEQGRYAGNGVITDEDKA | -0.845
HMLFSDSDLKSLLDKDISYVIEMYKAASKEQKRIISDMVAQKVMEKKYIDANILIQLGELTGINYMDL | -0.472
HMLFSEKLKQAMQDLHLNQIQVVGLTGKSKGSISQYISGKQVPSEATQRDIAISLGLEENYFSKK | 0.282
